Data set [1] concerns the target T1, rhBMP-2 (His-tagged, refolded, E. coli-expressed) (human, UniProt P12643 283-396).
T1 sequence: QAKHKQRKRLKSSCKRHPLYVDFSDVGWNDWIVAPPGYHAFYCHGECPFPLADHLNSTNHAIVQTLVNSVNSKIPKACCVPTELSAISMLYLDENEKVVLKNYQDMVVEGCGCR
Put plainly: ELONA; immobilized rhBMP-2, 100 ng/well; EMSA: 20 mM HEPES pH 7.4, 150 mM NaCl, 2 mM MgCl2, 2 mM CaCl2, 2 mM KCl, 37 C 1 h, 12% native PAGE at 4 C; ELONA: His-rhBMP-2 on HisSorb plate, biotinylated DNA 1 h at 37 C, PBST washes. The conditions noted are these: protein: recombinant, tags: His tag (pET-15b NdeI/BamHI), chain copies: 2, label: biotin (ELONA), none in EMSA.

The target in data set [2] is T1, rhBMP-2 (His-tagged, refolded, E. …). Description: ELISA-like; fiber of 500 nM BA1 and 10% type I collagen (0.3 mg/mL); EMSA: 20 mM HEPES pH 7.4, 150 mM NaCl, 2 mM MgCl2, 2 mM CaCl2, 2 mM KCl, 37 C 1 h, 12% native PAGE at 4 C; ELONA: His-rhBMP-2 on HisSorb plate, biotinylated DNA 1 h at 37 C, PBST washes. The conditions noted are these: protein: recombinant; tags: His tag (pET-15b NdeI/BamHI); chain copies: 2; label: biotin. Background: In an ELISA, binding on a coated surface is turned into a signal by an enzyme label.

Broadly, the Kd is the constant that tells how readily two partners part at equilibrium.

B1: BNA2 (ssDNA)
DNA: CGTACGGTCGACGCTAGCATCAGCTCTCTGGGCTGAGTGGGTGGTGTGGCACGCACGTGGAGCTCGGATCC
Turning to B1, the Kd in data set [1] was 22.3 ± 1.97 nM.

B2: BA1 (ssDNA)
DNA: CGTACGGTCGACGCTAGCAAAACAAAAAAAAATAAAAAAAAAAAGACTAAAGACACGTGGAGCTCGGATCC
Turning to B2, the Kd in data set [1] (single strand, predicted hairpin-like) was 6.95 ± 0.53 nM.

B3: BA1 in collagen fiber (ssDNA)
DNA: B2 DNA
Consider B3, for which the Kd in data set [2] was approximately 3.5 nM.

B4: BA2 (ssDNA)
DNA: CGTACGGTCGACGCTAGCAAAAAAAAATCTAAAAACAAGAAAAGAAAAACAAACACGTGGAGCTCGGATCC
In the case of B4, in data set [1], the Kd came out at 20.3 ± 4.73 nM.

Values taken from publication PMC10974264, “The Evolution and Application of a Novel DNA Aptamer Targeting Bone Morphogenetic Protein 2 for Bone Regeneration”.
